# Laboratory results reported in US20030236190A1 (published 2003).
# Positions of bridges follow the written chain, without caps; N, C: chain ends. No end group written: not given here.
# B1: X2CA-2-B4-IGFR (peptide)
# peptide: CCLLCRFQQNFYDWFVCQGISRLRPL
# modifications: disulfide (positions not given here); also: disulfide among the four cysteines, pairing not given here
# Biological target: T1, Soluble IGF-1R (R&D Systems, Cat. # 391-GR/CF); recombinant human IGF-1R (human, UniProt P08069 31-935)
# T1 construct: extracellular domain; Eu3+-labelled in the TR-FRET assays; also called sIGF-1R; rhIGF-1R
# Assay: phage ELISA, vs IR
row,Binder,IGF-1R/IR Comparison [ratio]
1,KLHNLMFYYGLQRLVWGAGLG [20E2B-4-H3-IGFR],13.9
2,IQQELTFYDLLHRLVRSELGS [20E2B-3-D2-IGFR],11.7
3,QGGSASFYDAIDRLLRMRIGG [20E2A-4-F11-IGFR],14.6
4,RCGRELYHSTFYDWFDRQVAGRTCPS [H2CA-1-A7-IGFR],3.7
5,TFYSCLASLLTGTPQPNRGPWERCR (disulfide 5-24 (inferred)) [20C-3-G3-IGFR],27
6,SQAGSAFYAWFDQVLRTVHSA [20E2Bβ-4-G6-IR],3.3
7,RGQSDAFYSGLWALIGLSDG [R20β-4-A6-IR],17.3
8,FYVQQWGHENFYDWFDRQVSQSGGAG [H2CA-4-F1-IGFR],3.8
9,SSYGCDGFYLMLFSLGLVASQELEC (disulfide 5-25 (inferred)) [20C-3-A1-IGFR],13.7
10,PDLHKGFYAQLAQLIRGQLLS [20E2H-3-E3-IGFR],13.1
11,GNGDGMFYQLLSLLVGRDMHV [20E22-3-C2-IGFR],13.8
12,VERSASSQDGNFYDWFVVQIR [A6S-2-D1-IR],2.6
13,LQPCSGFYECIERLIGVKLSG (disulfide 4-10 (inferred)) [20E2Bβ-4-G7-IR],15.8
14,HLADGQFHEKFYDWFERQISSRCNDC [H2CA-3-E11-IGFR],2.2
15,RGMKEEVLVGGSTDPFYHKLSELLQGS [B6Hα-3-F11-IR],11.7
16,FRTLAAQHDSFYDWFDRQVSGAAGER [H2CA-3-C11-IGFR],2.1
17,LGYQEPFQQNFYDWFVRQVSGAENAG [E2CA-3-E8-IGFR],2.9
18,GVRAMSFYDALVSVLGLGPSG [20E2B-1-A6-IGFR],16.8
19,GFREGSFYDWFQAQVT [E4Dα-2-D11-IR],3.4
20,TSEVQRRSQDNFYDWFVAQVA [A6S-3-E2-IR],2.5
21,DRDFCRFYERLTALVGGQVDGGWPC (disulfide 5-25 (inferred)) [20C-3-F6-IGFR],14.1
22,GAPVDQLHEDFYDWFVRQVSQAATG [E2CA-2-B2-IGFR],3.5
23,B1,3.6
24,EAASLGSQDRNFYDWFVRQVV [A6S-2-D11-IR],2.8
25,LKDGFYDYFWQRLHLGS [NNRPγ-4-B11-IR],15.5
26,FYDAIDQLVRGSARAGGTRD [R20α-3-2082-IR],12.9
27,VEGRGLFYDLLRQLLARRQNG [20E2B-3-C6-IGFR],14.8
28,LRRQAPVEENFYDWFVRQVSGDRVGG [H2CA-3-D7-IGFR],3.7
29,PPLASDLDVQFYGWFVQQVSPPGRGG [H2CA-2-B3-IGFR],3.6
30,FFYDCLAALLQGVARYHDLCAVEIT (disulfide 5-20 (inferred)) [20C-4-C7-IGFR],21.8

# Biological target: T1, Soluble IGF-1R (R&D Systems, Cat. # …)
# Assay: phage ELISA vs milk
row,Binder,Ratio over Background [fold]
1,KLHNLMFYYGLQRLVWGAGLG [20E2B-4-H3-IGFR],14.8
2,IQQELTFYDLLHRLVRSELGS [20E2B-3-D2-IGFR],12.4
3,QGGSASFYDAIDRLLRMRIGG [20E2A-4-F11-IGFR],18.8
4,RCGRELYHSTFYDWFDRQVAGRTCPS [H2CA-1-A7-IGFR],2.2
5,TFYSCLASLLTGTPQPNRGPWERCR (disulfide 5-24 (inferred)) [20C-3-G3-IGFR],32.3
6,SQAGSAFYAWFDQVLRTVHSA [20E2Bβ-4-G6-IR],6.2
7,RGQSDAFYSGLWALIGLSDG [R20β-4-A6-IR],25.9
8,FYVQQWGHENFYDWFDRQVSQSGGAG [H2CA-4-F1-IGFR],3.5
9,SSYGCDGFYLMLFSLGLVASQELEC (disulfide 5-25 (inferred)) [20C-3-A1-IGFR],20.8
10,PDLHKGFYAQLAQLIRGQLLS [20E2H-3-E3-IGFR],16.3
11,GNGDGMFYQLLSLLVGRDMHV [20E22-3-C2-IGFR],8.9
12,VERSASSQDGNFYDWFVVQIR [A6S-2-D1-IR],30.6
13,LQPCSGFYECIERLIGVKLSG (disulfide 4-10 (inferred)) [20E2Bβ-4-G7-IR],25.2
14,HLADGQFHEKFYDWFERQISSRCNDC [H2CA-3-E11-IGFR],2.2
15,RGMKEEVLVGGSTDPFYHKLSELLQGS [B6Hα-3-F11-IR],18.7
16,FRTLAAQHDSFYDWFDRQVSGAAGER [H2CA-3-C11-IGFR],3.3
17,LGYQEPFQQNFYDWFVRQVSGAENAG [E2CA-3-E8-IGFR],6.3
18,GVRAMSFYDALVSVLGLGPSG [20E2B-1-A6-IGFR],18.1
19,GFREGSFYDWFQAQVT [E4Dα-2-D11-IR],11.1
20,TSEVQRRSQDNFYDWFVAQVA [A6S-3-E2-IR],24.7
21,DRDFCRFYERLTALVGGQVDGGWPC (disulfide 5-25 (inferred)) [20C-3-F6-IGFR],26.1
22,GAPVDQLHEDFYDWFVRQVSQAATG [E2CA-2-B2-IGFR],3.4
23,B1,4.1
24,EAASLGSQDRNFYDWFVRQVV [A6S-2-D11-IR],37.4
25,LKDGFYDYFWQRLHLGS [NNRPγ-4-B11-IR],18.7
26,FYDAIDQLVRGSARAGGTRD [R20α-3-2082-IR],39.9
27,VEGRGLFYDLLRQLLARRQNG [20E2B-3-C6-IGFR],16.8
28,LRRQAPVEENFYDWFVRQVSGDRVGG [H2CA-3-D7-IGFR],3
29,PPLASDLDVQFYGWFVQQVSPPGRGG [H2CA-2-B3-IGFR],3.8
30,FFYDCLAALLQGVARYHDLCAVEIT (disulfide 5-20 (inferred)) [20C-4-C7-IGFR],28

# Biological target: T2, Insulin receptor prepared according to Bass et al., 1996: soluble human insulin receptor-immunoglobulin heavy … (human, UniProt P06213 28-956)
# T2 construct: extracellular domain; Eu3+-labelled in TR-FRET; also called IR; sIR-Fc; not shown: immunoglobulin heavy chain constant domains that replace the transmembrane and i
# Assay: phage ELISA vs milk
row,Binder,Ratio over Background [fold]
1,KLHNLMFYYGLQRLVWGAGLG [20E2B-4-H3-IGFR],1.1
2,IQQELTFYDLLHRLVRSELGS [20E2B-3-D2-IGFR],1.2
3,QGGSASFYDAIDRLLRMRIGG [20E2A-4-F11-IGFR],1.3
4,RCGRELYHSTFYDWFDRQVAGRTCPS [H2CA-1-A7-IGFR],0.6
5,TFYSCLASLLTGTPQPNRGPWERCR (disulfide 5-24 (inferred)) [20C-3-G3-IGFR],1.2
6,SQAGSAFYAWFDQVLRTVHSA [20E2Bβ-4-G6-IR],1.9
7,RGQSDAFYSGLWALIGLSDG [R20β-4-A6-IR],1.5
8,FYVQQWGHENFYDWFDRQVSQSGGAG [H2CA-4-F1-IGFR],0.9
9,SSYGCDGFYLMLFSLGLVASQELEC (disulfide 5-25 (inferred)) [20C-3-A1-IGFR],1.5
10,PDLHKGFYAQLAQLIRGQLLS [20E2H-3-E3-IGFR],1.3
11,GNGDGMFYQLLSLLVGRDMHV [20E22-3-C2-IGFR],0.6
12,VERSASSQDGNFYDWFVVQIR [A6S-2-D1-IR],12
13,LQPCSGFYECIERLIGVKLSG (disulfide 4-10 (inferred)) [20E2Bβ-4-G7-IR],1.6
14,HLADGQFHEKFYDWFERQISSRCNDC [H2CA-3-E11-IGFR],1
15,RGMKEEVLVGGSTDPFYHKLSELLQGS [B6Hα-3-F11-IR],1.6
16,FRTLAAQHDSFYDWFDRQVSGAAGER [H2CA-3-C11-IGFR],1.6
17,LGYQEPFQQNFYDWFVRQVSGAENAG [E2CA-3-E8-IGFR],2.2
18,GVRAMSFYDALVSVLGLGPSG [20E2B-1-A6-IGFR],1.1
19,GFREGSFYDWFQAQVT [E4Dα-2-D11-IR],3.3
20,TSEVQRRSQDNFYDWFVAQVA [A6S-3-E2-IR],9.8
21,DRDFCRFYERLTALVGGQVDGGWPC (disulfide 5-25 (inferred)) [20C-3-F6-IGFR],1.9
22,GAPVDQLHEDFYDWFVRQVSQAATG [E2CA-2-B2-IGFR],1
23,B1,1.1
24,EAASLGSQDRNFYDWFVRQVV [A6S-2-D11-IR],13.9
25,LKDGFYDYFWQRLHLGS [NNRPγ-4-B11-IR],1.2
26,FYDAIDQLVRGSARAGGTRD [R20α-3-2082-IR],3.1
27,VEGRGLFYDLLRQLLARRQNG [20E2B-3-C6-IGFR],1.1
28,LRRQAPVEENFYDWFVRQVSGDRVGG [H2CA-3-D7-IGFR],0.8
29,PPLASDLDVQFYGWFVQQVSPPGRGG [H2CA-2-B3-IGFR],1
30,FFYDCLAALLQGVARYHDLCAVEIT (disulfide 5-20 (inferred)) [20C-4-C7-IGFR],1.3

# Biological target: T2, Insulin receptor prepared according to …
# Assay: phage ELISA, vs IGF-1R
row,Binder,IR/IGF-1R Comparison [ratio]
1,KLHNLMFYYGLQRLVWGAGLG [20E2B-4-H3-IGFR],0.1
2,IQQELTFYDLLHRLVRSELGS [20E2B-3-D2-IGFR],0.1
3,QGGSASFYDAIDRLLRMRIGG [20E2A-4-F11-IGFR],0.1
4,RCGRELYHSTFYDWFDRQVAGRTCPS [H2CA-1-A7-IGFR],0.3
5,TFYSCLASLLTGTPQPNRGPWERCR (disulfide 5-24 (inferred)) [20C-3-G3-IGFR],< 0.1
6,SQAGSAFYAWFDQVLRTVHSA [20E2Bβ-4-G6-IR],0.3
7,RGQSDAFYSGLWALIGLSDG [R20β-4-A6-IR],0.1
8,FYVQQWGHENFYDWFDRQVSQSGGAG [H2CA-4-F1-IGFR],0.3
9,SSYGCDGFYLMLFSLGLVASQELEC (disulfide 5-25 (inferred)) [20C-3-A1-IGFR],0.1
10,PDLHKGFYAQLAQLIRGQLLS [20E2H-3-E3-IGFR],0.1
11,GNGDGMFYQLLSLLVGRDMHV [20E22-3-C2-IGFR],0.1
12,VERSASSQDGNFYDWFVVQIR [A6S-2-D1-IR],0.4
13,LQPCSGFYECIERLIGVKLSG (disulfide 4-10 (inferred)) [20E2Bβ-4-G7-IR],0.1
14,HLADGQFHEKFYDWFERQISSRCNDC [H2CA-3-E11-IGFR],0.5
15,RGMKEEVLVGGSTDPFYHKLSELLQGS [B6Hα-3-F11-IR],0.1
16,FRTLAAQHDSFYDWFDRQVSGAAGER [H2CA-3-C11-IGFR],0.5
17,LGYQEPFQQNFYDWFVRQVSGAENAG [E2CA-3-E8-IGFR],0.3
18,GVRAMSFYDALVSVLGLGPSG [20E2B-1-A6-IGFR],0.1
19,GFREGSFYDWFQAQVT [E4Dα-2-D11-IR],0.3
20,TSEVQRRSQDNFYDWFVAQVA [A6S-3-E2-IR],0.4
21,DRDFCRFYERLTALVGGQVDGGWPC (disulfide 5-25 (inferred)) [20C-3-F6-IGFR],0.1
22,GAPVDQLHEDFYDWFVRQVSQAATG [E2CA-2-B2-IGFR],0.3
23,B1,0.3
24,EAASLGSQDRNFYDWFVRQVV [A6S-2-D11-IR],0.4
25,LKDGFYDYFWQRLHLGS [NNRPγ-4-B11-IR],0.1
26,FYDAIDQLVRGSARAGGTRD [R20α-3-2082-IR],0.1
27,VEGRGLFYDLLRQLLARRQNG [20E2B-3-C6-IGFR],0.1
28,LRRQAPVEENFYDWFVRQVSGDRVGG [H2CA-3-D7-IGFR],0.3
29,PPLASDLDVQFYGWFVQQVSPPGRGG [H2CA-2-B3-IGFR],0.3
30,FFYDCLAALLQGVARYHDLCAVEIT (disulfide 5-20 (inferred)) [20C-4-C7-IGFR],< 0.1
